Data published in US20120269814A1 (Amgen, published 2012).
Read-outs that look alike come from different tables or passages of the source.

T1: human c-Mpl (full length, on cells) (human, UniProt P40238 26-635)
T1 sequence: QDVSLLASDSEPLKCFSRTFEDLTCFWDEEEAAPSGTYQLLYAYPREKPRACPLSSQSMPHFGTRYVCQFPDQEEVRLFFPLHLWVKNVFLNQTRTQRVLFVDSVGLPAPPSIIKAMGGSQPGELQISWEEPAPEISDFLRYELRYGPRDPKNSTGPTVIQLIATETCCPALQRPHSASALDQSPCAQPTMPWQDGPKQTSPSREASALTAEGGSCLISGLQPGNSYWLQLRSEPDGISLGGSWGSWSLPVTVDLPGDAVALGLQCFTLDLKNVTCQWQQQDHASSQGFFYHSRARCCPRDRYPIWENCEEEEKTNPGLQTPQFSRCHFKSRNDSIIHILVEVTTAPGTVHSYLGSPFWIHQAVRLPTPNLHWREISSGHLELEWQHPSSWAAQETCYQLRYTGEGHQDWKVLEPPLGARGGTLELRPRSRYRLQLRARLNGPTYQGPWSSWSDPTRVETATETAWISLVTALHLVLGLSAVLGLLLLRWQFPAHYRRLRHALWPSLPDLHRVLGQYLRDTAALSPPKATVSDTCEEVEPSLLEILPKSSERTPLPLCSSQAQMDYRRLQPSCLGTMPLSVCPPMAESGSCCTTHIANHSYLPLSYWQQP

T2: rhu-c-Mpl (AA1-490-6H) (human, UniProt P40238 26-490)
T2 construct: Entire 490 amino acid extracellular domain with six C-terminal histidines, expressed in CHO cells; also called recombinant human c-Mpl protein; soluble c-Mpl
T2 sequence: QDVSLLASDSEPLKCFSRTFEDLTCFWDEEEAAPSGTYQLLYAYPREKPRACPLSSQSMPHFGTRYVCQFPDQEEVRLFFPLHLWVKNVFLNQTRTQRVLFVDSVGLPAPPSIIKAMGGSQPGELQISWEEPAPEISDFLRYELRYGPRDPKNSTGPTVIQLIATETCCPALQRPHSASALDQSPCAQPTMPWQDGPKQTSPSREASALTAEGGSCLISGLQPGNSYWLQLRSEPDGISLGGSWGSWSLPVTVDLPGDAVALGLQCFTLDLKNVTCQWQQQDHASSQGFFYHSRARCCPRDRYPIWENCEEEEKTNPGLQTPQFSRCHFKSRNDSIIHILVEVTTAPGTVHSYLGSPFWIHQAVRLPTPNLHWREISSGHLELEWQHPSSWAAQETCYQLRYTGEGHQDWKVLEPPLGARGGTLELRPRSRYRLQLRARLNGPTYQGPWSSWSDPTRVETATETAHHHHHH


Tests used:
[1] = molecular target: T1, human c-Mpl (full length, on cells); experiment: cell-based or functional assay
[2] = molecular target: T2, rhu-c-Mpl (AA1-490-6H); experiment: solution-equilibrium Biacore with soluble rhu-c-Mpl, KinExA Pro fit
Description: The affinities of these anti-c-Mpl mAbs to the soluble c-Mpl protein were determined in a solution-based Biacore analysis. Briefly, a fixed amount of rhu-c-Mpl was incubated with various concentrations of anti-c-Mpl mAbs at room temperature for ˜4 hours before being run over the same anti-c-Mpl mAbs immobilized at high density on a CM5 surface. In this assay the binding signal is proportional to the concentration of free rhu-c-Mpl at equilibrium with a given antibody concentration. The dissociation equilibrium constant (KD) was obtained from nonlinear regression of the competition curves using an n-curve one-site homogeneous binding model (KinExATM Pro software).

[3] = molecular target: T1, human c-Mpl (full length, on cells); experiment: cell-based or functional assay; remark: listed apart in the source

IC50 (nM), inhibition of rhuTPO (26 pM)-driven proliferation of 32D-hu-c-Mpl cells (CellTiter-Glo) [1] [nM]	Kd [2] [nM]	IC50 (nM), inhibition of rhuTPO (26 pM)-driven proliferation of 32D-hu-c-Mpl cells (CellTiter-Glo) [3] [nM]	Binder
0.12	0.036		mAb 1.111 (antibody, IgG1, V domains shown, also called A4) VH: DVQLQESGPGLVKPSQSLSLTCTVTGYSITIDYTWNWIRQFPGNKLEWMGYITYSGSTDYNPSLKSRSSITRDTSMNQFFLQLNSVTTEDTATYYCARLGRRYALDYWGQGTSVTVSS VL: DIQMTQSSSSFSVSLGDRVTITCKASEDIYIRLAWYQQKPGNAPRLLISAATSLETGIPSRFSGSGSGEDYTLTITSLQTEDVATYYCQQYWTTPWTFGGGTKLEIKR
0.03	0.036		mAb 1.6 (antibody, IgG2b, V domains shown, An Alexa Fluor 647 conjugate was used for CD34+ cell staining; also called Ab 1.6.1; A1) VH: DVQLQESGPGLVKPSQSLSLTCTVTGYSITSDYTWNWIRQFPGNKLEWMGYITYSGSTSYNPSLKSRNSITRDTSKNQFFLQLNSVTTEDTATYYCARLGRRYTMDYWGQGTSVTVSS VL: DIQMTQSSSSFSVSLGDRVTITCMASEDIYIRLAWYQQKPGNAPRLLISAATSLETGVPSRFSGSGSGKDYTLSITSLQTEDVGTYYCQQYWSSPWTFGGGTKLEIN
0.05	0.01		mAb 1.75 (antibody, IgG2b, V domains shown, also called A2) VH: EVQLVESGGGLVQPKGSLKLSCAASGFSFNTYAMNWVRQAPGKGLEWIAHIRSKSNNFATYYADSVKDRFSISRDASENILFLQMNNLKTEDTAMYYCVRQGGDFPMDYWGQGTSVTVSS VL: QIVLTQSPAIMSASPGEKVTISCSASSSVSYMYWYQQKPGSSPKPWIYRTSNLASGVPARFSGSGSGTSYSLTISNMEAEDAAAYYCQQYHSYPTTFGGGTKLEVK
	0.48	5.32	mAb 1.169 (antibody, IgG1, V domains shown, also called A6) VH: QVQLQQSGPELVKPGASVKISCKASGYGFSSSWMNWVKQRPGKGLEWIGRIYPGDGETSYNGEFKGKATLTADKSSSTAYMQLSSLTSEDSAVYFCASYYEGGYWGQGTLVTVSA VL: DIVMTQAAPSLPVTPGESVSISCRSSKSLLHSNGNTYLFWFLQRPGQSPHLLIYRMSNLASGVPDRFSGSGSGTAFTLRISRVEAEDVGVYYCMQHLEYPYTFGGGTKLEIKR
	0.45	1.25	mAb 1.36 (antibody, IgG1, V domains shown, also called A5) VH: QVQLQQSGPELVKPGASVKISCKASGYGFSNSWMNWVRQRPGKGLEWIGRIYPGDGETSYNGEFVGKATLTADKSSSTAYMHLSSLTSEDSAVYFCASYYEGGYWGQGTLVTVS VL: DIVMTQAAPSVPVTPGESVSISCRSSKSLLHSNGNTYLYWFLQRPGQSPQLLIYRMSNLASGVPDRFSGSGSGTAFTLRISRVEAEDVGVYYCMQHLEYPYTFGGGTKLEIKR
	0.072	0.23	mAb 1.78 (antibody, IgG1, V domains shown, also called A3) VH: QVQLQQSGPELVKPGASVKMSCKASGYAFSSSWLNWVRQRPGKGLEWIGRIYPGDGENHYNGKFKGKATLTADKSSSTGYMQLSSLTSEDSAVYFCASYYEGGYWGQGTLITVSA VL: DIVMTQAAPSIPVTPGESVSISCRSDKSLLHSNGNTYLFWFLQRPGQSPQLLIYRMSNLASGVPDRFSGSGSGTAFTLRISGVEAEDVGVYYCMQHLEYPYTFGGGTKLEIK
